Assay results published in patent publication US20240024505.

Legend:
[1] = molecular target: endogenous IGFBP-3 in human synovial fluid, P17936
[2] = molecular target: recombinant IGFBP-3, P17936
Chain of recombinant IGFBP-3, P17936 (P17936 28-291): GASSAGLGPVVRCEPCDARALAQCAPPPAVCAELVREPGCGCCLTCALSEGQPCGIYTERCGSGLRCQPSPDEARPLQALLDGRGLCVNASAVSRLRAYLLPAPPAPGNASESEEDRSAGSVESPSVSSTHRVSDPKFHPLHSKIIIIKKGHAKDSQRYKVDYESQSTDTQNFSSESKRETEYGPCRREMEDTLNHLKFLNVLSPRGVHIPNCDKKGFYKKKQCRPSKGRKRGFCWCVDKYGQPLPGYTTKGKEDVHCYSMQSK

Chain of endogenous IGFBP-3 in human synovial fluid, P17936 (P17936 28-291): as above

B1: PAPPA2 from conditioned media (protein)
chain: PPEESNQNGGEGSYREAETFNSQVGLPILYFSGRRERLLLRPEVLAEIPREAFTVEAWVKPEGGQNNPAIIAGVFDNCSHTVSDKGWALGIRSGKDKGKRDARFFFSLCTDRVKKATILISHSRYQPGTWTHVAATYDGRHMALYVDGTQVASSLDQSGPLNSPFMASCRSLLLGGDSSEDGHYFRGHLGTLVFWSTALPQSHFQHSSQHSSGEEEATDLVLTASFEPVNTEWVPFRDEKYPRLEVLQGFEPEPEILSPLQPPLCGQTVCDNVELISQYNGYWPLRGEKVIRYQVVNICDDEGLNPIVSEEQIRLQHEALNEAFSRYNISWQLSVHQVHNSTLRHRVVLVNCEPSKIGNDHCDPECEHPLTGYDGGDCRLQGRCYSWNRRDGLCHVECNNMLNDFDDGDCCDPQVADVRKTCFDPDSPKRAYMSVKELKEALQLNSTHFLNIYFASSVREDLAGAATWPWDKDAVTHLGGIVLSPAYYGMPGHTDTMIHEVGHVLGLYHVFKGVSERESCNDPCKETVPSMETGDLCADTAPTPKSELCREPEPTSDTCGFTRFPGAPFTNYMSYTDDNCTDNFTPNQVARMHCYLDLVYQQWTESRKPTPIPIPPMVIGQTNKSLTIHWLPPISGVVYDRASGSLCGACTEDGTFRQYVHTASSRRVCDSSGYWTPEEAVGPPDVDQPCEPSLQAWSPEVHLYHMNMTVPCPTEGCSLELLFQHPVQADTLTLWVTSFFMESSQVLFDTEILLENKESVHLGPLDTFCDIPLTIKLHVDGKVSGVKVYTFDERIEIDAALLTSQPHSPLCSGCRPVRYQVLRDPPFASGLPVVVTHSHRKFTDVEVTPGQMYQYQVLAEAGGELGEASPPLNHIHGAPYCGDGKVSERLGEECDDGDLVSGDGCSKVCELEEGFNCVGEPSLCYMYEGDGICEPFERKTSIVDCGIYTPKGYLDQWATRAYSSHEDKKKCPVSLVTGEPHSLICTSYHPDLPNHRPLTGWFPCVASENETQDDRSEQPEGSLKKEDEVWLKVCFNRPGEARAIFIFLTTDGLVPGEHQQPTVTLYLTDVRGSNHSLGTYGLSCQHNPLIINVTHHQNVLFHHTTSVLLNFSSPRVGISAVALRTSSRIGLSAPSNCISEDEGQNHQGQSCIHRPCGKQDSCPSLLLDHADVVNCTSIGPGLMKCAITCQRGFALQASSGQYIRPMQKEILLTCSSGHWDQNVSCLPVDCGVPDPSLVNYANFSCSEGTKFLKRCSISCVPPAKLQGLSPWLTCLEDGLWSLPEVYCKLECDAPPIILNANLLLPHCLQDNHDVGTICKYECKPGYYVAESAEGKVRNKLLKIQCLEGGIWEQGSCIPVVCEPPPPVFEGMYECTNGFSLDSQCVLNCNQEREKLPILCTKEGLWTQEFKLCENLQGECPPPPSELNSVEYKCEQGYGIGAVCSPLCVIPPSDPVMLPENITADTLEHWMEPVKVQSIVCTGRRQWHPDPVLVHCIQSCEPFQADGWCDTINNRAYCHYDGGDCCSSTLSSKKVIPFAADCDLDECTCRDPKAEENQ
Question: What does the source list for B1?
Answer: protease activity: intact IGFBP-3 in synovial fluid by ELISA [1]: Treatment of healthy or diseased human synovial fluid with conditioned media containing PAPPA2 results in a significant decrease in intact IGFBP-3; IGF-1 signaling (AP-1 driven bioluminescence) in the presence of IGFBP-3 [2]: Treatment with PAPPA2 allows for robust IGF-1 signaling in the modeled healthy and disease-state; protease activity: intact IGFBP-3 by ELISA [2]: PAPPA2 from conditioned media efficiently cleaves IGFBP-3, as measured by an ELISA for intact IGFBP-3, with and without bound IGF-1
